Reference: patent US20220406376A1 (MacroGenics, published 2022)

B1: DART-F (bispecific antibody, human IgG1, kappa, L234A L235A)
heavy: QVQLVQSGAEVKKPGASVKVSCKASGYTFTNYGMNWVRQAPGQGLEWMGWINTNIGEPTYTEEFKGRVTMTRDTSISTAYMELSRLRSDDTAVYYCARDDGYGNRVSYWGQGTLVTVSSASTKGPSVFPLAPSSKSTSGGTAALGCLVKDYFPEPVTVSWNSGALTSGVHTFPAVLQSSGLYSLSSVVTVPSSSLGTQTYICNVNHKPSNTKVDKRVEPKSCDKTHTCPPCPAPEAAGGPSVFLFPPKPKDTLMISRTPEVTCVVVDVSHEDPEVKFNWYVDGVEVHNAKTKPREEQYNSTYRVVSVLTVLHQDWLNGKEYKCKVSNKALPAPIEKTISKAKGQPREPQVYTLPPSREEMTKNQVSLSCAVKGFYPSDIAVEWESNGQPENNYKTTPPVLDSDGSFFLVSKLTVDKSRWQQGNVFSCSVMHEALHNRYTQKSLSLSPGK
light: DIQMTQSPSSLSASVGDRVTITCKASQDISNYLSWFQQKPGKAPKTLIYRANRLQSGVPSRFSGSGSGTDFTLTISSLQPEDFATYYCLQHDEFPWTFGQGTKLEIKRTVAAPSVFIFPPSDEQLKSGTASVVCLLNNFYPREAKVQWKVDNALQSGNSQESVTEQDSKDSTYSLSSTLTLSKADYEKHKVYACEVTHQGLSSPVTKSFNRGEC
chain 1: QVQLVQSGAEVKKPGASVKVSCKASGYTFTNYGMNWVRQAPGQGLEWMGWINTNIGEPTYTEEFKGRVTMTRDTSISTAYMELSRLRSDDTAVYYCARDDGYGNRVSYWGQGTLVTVSSASTKGPSVFPLAPSSKSTSGGTAALGCLVKDYFPEPVTVSWNSGALTSGVHTFPAVLQSSGLYSLSSVVTVPSSSLGTQTYICNVNHKPSNTKVDKRVEPKSCDKTHTCPPCPAPEAAGGPSVFLFPPKPKDTLMISRTPEVTCVVVDVSHEDPEVKFNWYVDGVEVHNAKTKPREEQYNSTYRVVSVLTVLHQDWLNGKEYKCKVSNKALPAPIEKTISKAKGQPREPQVYTLPPSREEMTKNQVSLWCLVKGFYPSDIAVEWESNGQPENNYKTTPPVLDSDGSFFLYSKLTVDKSRWQQGNVFSCSVMHEALHNHYTQKSLSLSPGGGGSGGGSGGGDIQMTQTTSSLSASLGDRVTISCRASQDISNYLNWYQQKPDGTVKLLIYYTSRLHSGVPSRFSGSGSGTDYSLTISNLEQEDIATYFCQQGNTLPYTFGGGTKLEIKGGGSGGGGQVQLQQPGAELVRPGASVKLSCKASGYTFTSYWINWVKQRPGQGLEWIGNIYPSDSYTNYDQKFKDKATLTVDKSSSTAYMQLSSPTSEDSAVYYCTKSGEYGKIGYYAMDYWGQGTSVTVSSGGCGGGEVAALEKEVAALEKEVAALEKEVAALEK
chain 2: DIQMTQTTSSLSASLGDRVTISCRASQDISNYLNWYQQKPDGTVKLLIYYTSRLHSGVPSRFSGSGSGTDYSLTISNLEQEDIATYFCQQGNTLPYTFGGGTKLEIKGGGSGGGGQVQLQQPGAELVRPGASVKLSCKASGYTFTSYWINWVKQRPGQGLEWIGNIYPSDSYTNYDQKFKDKATLTVDKSSSTAYMQLSSPTSEDSAVYYCTKSGEYGKIGYYAMDYWGQGTSVTVSSGGCGGGKVAALKEKVAALKEKVAALKEKVAALKE
B2: DART-1 (bispecific antibody)
chain 1: not shown
chain 2: EIVLTQSPATLSLSPGERATLSCRASQSVSSYLAWYQQKPGQAPRLLIYDASNRATGIPARFSGSGSGTDFTLTISSLEPEDFAVYYCQQRSNWPPALTFGGGTKVEIKGGGSGGGGQVQLVQSGAEVKKPGASVKVSCKASGYTFTNYGMNWVRQAPGQGLEWMGWINTNIGEPTYTEEFKGRVTMTRDTSISTAYMELSRLRSDDTAVYYCARDDGYGNRVSYWGQGTLVTVSSGGCGGGKVAACKEKVAALKEKVAALKEKVAALKE
B3: DART-4 (bispecific antibody, human IgG1, kappa, L234A L235A)
heavy: B1 heavy
light: B1 light
chain 1: QVQLVQSGAEVKKPGASVKVSCKASGYTFTNYGMNWVRQAPGQGLEWMGWINTNIGEPTYTEEFKGRVTMTRDTSISTAYMELSRLRSDDTAVYYCARDDGYGNRVSYWGQGTLVTVSSASTKGPSVFPLAPSSKSTSGGTAALGCLVKDYFPEPVTVSWNSGALTSGVHTFPAVLQSSGLYSLSSVVTVPSSSLGTQTYICNVNHKPSNTKVDKRVEPKSCDKTHTCPPCPAPEAAGGPSVFLFPPKPKDTLMISRTPEVTCVVVDVSHEDPEVKFNWYVDGVEVHNAKTKPREEQYNSTYRVVSVLTVLHQDWLNGKEYKCKVSNKALPAPIEKTISKAKGQPREPQVYTLPPSREEMTKNQVSLWCLVKGFYPSDIAVEWESNGQPENNYKTTPPVLDSDGSFFLYSKLTVDKSRWQQGNVFSCSVMHEALHNHYTQKSLSLSPGGGGSGGGSGGGEIVLTQSPATLSLSPGERATLSCRASQSVSSYLAWYQQKPGQAPRLLIYDASNRATGIPARFSGSGSGTDFTLTISSLEPEDFAVYYCQQRSNWPPALTFGGGTKVEIKGGGSGGGGQVQLQQWGAGLLKPSETLSLTCAVYGGSFSGYYWSWIRQSPEKGLEWIGEINHGGYVTYNPSLESRVTISVDTSKNQFSLKLSSVTAADTAVYYCARDYGPGNYDWYFDLWGRGTLVTVSSGGCGGGEVAALEKEVAALEKEVAALEKEVAALEK
chain 2: EIVLTQSPATLSLSPGERATLSCRASQSVSSYLAWYQQKPGQAPRLLIYDASNRATGIPARFSGSGSGTDFTLTISSLEPEDFAVYYCQQRSNWPPALTFGGGTKVEIKGGGSGGGGQVQLQQWGAGLLKPSETLSLTCAVYGGSFSGYYWSWIRQSPEKGLEWIGEINHGGYVTYNPSLESRVTISVDTSKNQFSLKLSSVTAADTAVYYCARDYGPGNYDWYFDLWGRGTLVTVSSGGCGGGKVAALKEKVAALKEKVAALKEKVAALKE
B4: DART-2 (bispecific antibody)
chain 1: not shown
chain 2: SYELTQPPSVSVSPGQTASITCSGDNIGDQYAHWYQQKPGQSPVLVIYQDKNRPSGIPERFSGSNSGNTATLTISGTQAMDEADYYCATYTGFGSLAVFGGGTKLTVLGGGSGGGGQVQLVQSGAEVKKPGASVKVSCKASGYTFTNYGMNWVRQAPGQGLEWMGWINTNIGEPTYTEEFKGRVTMTRDTSISTAYMELSRLRSDDTAVYYCARDDGYGNRVSYWGQGTLVTVSSGGCGGGKVAACKEKVAALKEKVAALKEKVAALKE
B5: DART-5 (bispecific antibody, human IgG1, kappa, L234A L235A)
heavy: B1 heavy
light: B1 light
chain 1: QVQLVQSGAEVKKPGASVKVSCKASGYTFTNYGMNWVRQAPGQGLEWMGWINTNIGEPTYTEEFKGRVTMTRDTSISTAYMELSRLRSDDTAVYYCARDDGYGNRVSYWGQGTLVTVSSASTKGPSVFPLAPSSKSTSGGTAALGCLVKDYFPEPVTVSWNSGALTSGVHTFPAVLQSSGLYSLSSVVTVPSSSLGTQTYICNVNHKPSNTKVDKRVEPKSCDKTHTCPPCPAPEAAGGPSVFLFPPKPKDTLMISRTPEVTCVVVDVSHEDPEVKFNWYVDGVEVHNAKTKPREEQYNSTYRVVSVLTVLHQDWLNGKEYKCKVSNKALPAPIEKTISKAKGQPREPQVYTLPPSREEMTKNQVSLWCLVKGFYPSDIAVEWESNGQPENNYKTTPPVLDSDGSFFLYSKLTVDKSRWQQGNVFSCSVMHEALHNHYTQKSLSLSPGGGGSGGGSGGGSYELTQPPSVSVSPGQTASITCSGDNIGDQYAHWYQQKPGQSPVLVIYQDKNRPSGIPERFSGSNSGNTATLTISGTQAMDEADYYCATYTGFGSLAVFGGGTKLTVLGGGSGGGGEVQLVQSGAEVKKPGESLRISCKGSGYSFSTYWISWVRQMPGKGLEWMGKIYPGDSYTNYSPSFQGQVTISADKSISTAYLQWSSLKASDTAMYYCARGYGIFDYWGQGTLVTVSSGGCGGGEVAALEKEVAALEKEVAALEKEVAALEK
chain 2: SYELTQPPSVSVSPGQTASITCSGDNIGDQYAHWYQQKPGQSPVLVIYQDKNRPSGIPERFSGSNSGNTATLTISGTQAMDEADYYCATYTGFGSLAVFGGGTKLTVLGGGSGGGGEVQLVQSGAEVKKPGESLRISCKGSGYSFSTYWISWVRQMPGKGLEWMGKIYPGDSYTNYSPSFQGQVTISADKSISTAYLQWSSLKASDTAMYYCARGYGIFDYWGQGTLVTVSSGGCGGGKVAALKEKVAALKEKVAALKEKVAALKE

Target: T1, CD137 on the surface of cells (activated human T cells; engineered CHO cells) (human, UniProt Q07011 24-255)
T1 construct: whole, on cells; also called human CD137; cell surface expressed CD137
T1 sequence (Q07011 24-255, change not shown): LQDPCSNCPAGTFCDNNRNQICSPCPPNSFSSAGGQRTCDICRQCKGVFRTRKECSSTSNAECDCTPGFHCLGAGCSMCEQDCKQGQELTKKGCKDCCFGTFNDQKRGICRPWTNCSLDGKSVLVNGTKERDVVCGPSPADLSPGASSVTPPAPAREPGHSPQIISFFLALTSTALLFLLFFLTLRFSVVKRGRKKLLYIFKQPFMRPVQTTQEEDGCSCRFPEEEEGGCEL
Experiment: flow cytometry on activated pan T cells gated CD8, anti-hFc APC MFI

**Q.** Which “EC50 (read off the curve)” value does the source give for B1 here?
**A.** The value was roughly 0.5 nM.

**Q.** Which “EC50 (read off the curve)” value does the source give for B2 here?
**A.** Its value is roughly 0.1 nM.

**Q.** B3 was tested. Which “EC50 (read off the curve)” value did it give?
**A.** Its value is roughly 0.3 nM.

Target: T2, HER2/neu on the surface of target cells (N87, JIMT-1, MCF-7, MDA-MB231) (UniProt P04626 23-1255, limits assumed)
T2 construct: whole, on cells
Experiment: flow cytometry on N87 gastric cancer cells, anti-hFc APC MFI

**Q.** For B1, which “EC50 (read off the curve)” value is on record?
**A.** Its value is roughly 0.5 nM.

**Q.** With B2 as the binder, how does the “EC50 (read off the curve)” value read?
**A.** Its value is roughly 0.4 nM.

**Q.** With B4 as the binder, how does the “EC50 (read off the curve)” value read?
**A.** Its value is roughly 0.4 nM.

**Q.** With B5 as the binder, how does the “EC50 (read off the curve)” value read?
**A.** Its value is roughly 0.5 nM.
